The record followed here is patent publication US20070110757A1.

The target in the assay is RSV F protein on respiratory syncytial virus (RSV-Long strain) (respiratory syncytial virus (Long strain)) (UniProt P12568). Put plainly: cell-based or functional assay.
Chain of RSV F protein on respiratory syncytial virus (RSV-Long strain) (respiratory syncytial virus (Long strain)) (P12568 26-574): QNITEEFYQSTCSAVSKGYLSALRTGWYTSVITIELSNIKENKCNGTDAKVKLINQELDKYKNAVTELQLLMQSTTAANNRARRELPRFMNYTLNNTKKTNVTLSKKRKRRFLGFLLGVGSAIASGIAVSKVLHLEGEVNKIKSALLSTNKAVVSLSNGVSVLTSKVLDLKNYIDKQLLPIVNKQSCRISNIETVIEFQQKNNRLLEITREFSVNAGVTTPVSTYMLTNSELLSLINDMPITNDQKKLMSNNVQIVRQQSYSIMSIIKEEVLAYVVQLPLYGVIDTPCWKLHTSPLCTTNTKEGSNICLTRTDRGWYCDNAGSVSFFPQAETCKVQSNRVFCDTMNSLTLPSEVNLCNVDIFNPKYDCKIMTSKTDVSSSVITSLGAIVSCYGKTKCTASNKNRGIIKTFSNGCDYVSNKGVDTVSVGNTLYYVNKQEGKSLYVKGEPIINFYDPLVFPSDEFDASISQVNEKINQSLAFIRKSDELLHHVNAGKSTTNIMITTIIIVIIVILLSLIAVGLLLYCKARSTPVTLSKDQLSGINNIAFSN

B1: A17d4(1) monoclonal antibody (antibody, V domains shown)
VH: QVTLRESGPALVKPTQTLTLTCTFSGFSLSTAGMSVGWIRQPPGKALEWLADIWWDGKKSYNPSLKDRLTISKDTSKNQVVLKVTNMDPADTATYYCARDMIFNFYFDVWGQGTTVTVSS
VL: DIQMTQSPSTLSASVGDRVTITCLPSSRVGYMHWYQQKPGKAPKLLIYDTMYQSSGVPSRFSGSGSGTEFTLTISSLQPDDFATYYCFQGSGYPFTFGGGTKVEIK
Turning to B1, the Fold Difference (Control IC50) was 15 fold; the Fold Difference (Curve IC50) was determined as 13 fold; the Mean IC50 (Control), RSV microneutralization is 0.0354 µg/mL; the Mean IC50 (Curve), RSV microneutralization was 0.0342 µg/mL.

B2: A8c7 Fab fragment (Fab, V domains shown)
VH: QVTLRESGPALVKPTQTLTLTCTFSGFSLSTAGMSVGWIRQPPGKALEWLADIWWDDKKSYNPSLKDRLTISKDTSKNQVVLKVTNMDPADTATYYCARDMIFNWYFDVWGQGTTVTVSS
VL: DIQMTQSPSTLSASVGDRVTITCSPSSRVGYMHWYQQKPGKAPKLLIYDTRYQSSGVPSRFSGSGSGTEFTLTISSLQPDDFATYYCFQGSGYPFTFGGGTKVEIK
Turning to B2, the Fold Difference (Control IC50) was 34 fold; the Fold Difference (Curve IC50) came out at 3 fold; the Mean IC50 (Control), RSV microneutralization is 0.157 µg/mL; the Mean IC50 (Curve), RSV microneutralization is 0.177 µg/mL.

B3: P12f4 Fab fragment (Fab, V domains shown)
VH: QVTLRESGPALVKPTQTLTLTCTFSGFSLSTPGMSVGWIRQPPGKALEWLADIWWDGKKHYNPSLKDRLTISKDTSKNQVVLKVTNMDPADTATYYCARDMIFNFYFDVWGQGTTVTVSS
VL: DIQMTQSPSTLSASVGDRVTITCSLSSRVGYMHWYQQKPGKAPKLLIYDTRGLPSGVPSRFSGSGSGTEFTLTISSLQPDDFATYYCFQGSGYPFTFGGGTKVEIK
Take B3: the Fold Difference (Control IC50) came to 15 fold; the Fold Difference (Curve IC50) worked out at 10 fold; the Mean IC50 (Control), RSV microneutralization was found to be 0.0351 µg/mL; the Mean IC50 (Curve), RSV microneutralization was 0.0464 µg/mL.

B4: A1e9 Fab fragment (Fab, V domains shown)
VH: QVTLRESGPALVKPTQTLTLTCTFSGFSLSTAGMSVGWIRQPPGKALEWLADIWWDGKKHYNPSLKDRLTISKDTSKNQVVLKVTNMDPADTATYYCARDMIFNWYFDVWGQGTTVTVSS
VL: DIQMTQSPSTLSASVGDRVTITCSLSSRVGYMHWYQQKPGKAPKLLIYDTFKLSSGVPSRFSGSGSGTEFTLTISSLQPDDFATYYCFQGSGYPFTFGGGTKVEIK
Consider B4, for which the Fold Difference (Control IC50) came out at 4 fold; the Fold Difference (Curve IC50) is 3 fold; the Mean IC50 (Control), RSV microneutralization came out at 0.125 µg/mL; the Mean IC50 (Curve), RSV microneutralization turned out to be 0.157 µg/mL.

B5: P12f2 Fab fragment (Fab, V domains shown)
VH: QVTLRESGPALVKPTQTLTLTCTFSGFSLSTPGMSVGWIRQPPGKALEWLADIWWDDKKHYNPSLKDRLTISKDTSKNQVVLKVTNMDPADTATYYCARDMIFNFYFDVWGQGTTVTVSS
VL: DIQMTQSPSTLSASVGDRVTITCSLSSRVGYMHWYQQKPGKAPKLLIYDTFYLSSGVPSRFSGSGSGTEFTLTISSLQPDDFATYYCFQGSGYPFTFGGGTKVEIK
Regarding B5, the Fold Difference (Control IC50) came to 16 fold; the Fold Difference (Curve IC50) is 11 fold; the Mean IC50 (Control), RSV microneutralization was 0.0326 µg/mL; the Mean IC50 (Curve), RSV microneutralization was 0.0407 µg/mL.

B6: P11d4 Fab fragment (Fab, V domains shown)
VH: QVTLRESGPALVKPTQTLTLTCTFSGFSLSTPGMSVGWIRQPPGKALEWLADIWWDGKKHYNPSLKDRLTISKDTSKNQVVLKVTNMDPADTATYYCARDMIFNWYFDVWGQGTTVTVSS
VL: DIQMTQSPSTLSASVGDRVTITCSPSSRVGYMHWYQQKPGKAPKLLIYDTMRLASGVPSRFSGSGSGTEFTLTISSLQPDDFATYYCFQGSGYPFTFGGGTKVEIK
B6: the Mean IC50 (Control), RSV microneutralization is above 1 µg/mL and the Mean IC50 (Curve), RSV microneutralization is above 1 µg/mL.

B7: P12f4 monoclonal antibody (antibody, V domains shown)
VH: QVTLRESGPALVKPTQTLTLTCTFSGFSLSTPGMSVGWIRQPPGKALEWLADIWWDGKKHYNPSLKDRLTISKDTSKNQVVLKVTNMDPADTATYYCARDMIFNFYFDVWGQGTTVTVSS
VL: DIQMTQSPSTLSASVGDRVTITCSLSSRVGYMHWYQQKPGKAPKLLIYDTRGLPSGVPSRFSGSGSGTEFTLTISSLQPDDFATYYCFQGSGYPFTFGGGTKVEIK
For the molecule B7, the Fold Difference (Control IC50) was 23 fold; the Fold Difference (Curve IC50) worked out at 19 fold; the Mean IC50 (Control), RSV microneutralization was found to be 0.0235 µg/mL; the Mean IC50 (Curve), RSV microneutralization came out at 0.0242 µg/mL.

B8: P11d4 monoclonal antibody (antibody, V domains shown)
VH: QVTLRESGPALVKPTQTLTLTCTFSGFSLSTPGMSVGWIRQPPGKALEWLADIWWDGKKHYNPSLKDRLTISKDTSKNQVVLKVTNMDPADTATYYCARDMIFNWYFDVWGQGTTVTVSS
VL: DIQMTQSPSTLSASVGDRVTITCSPSSRVGYMHWYQQKPGKAPKLLIYDTMRLASGVPSRFSGSGSGTEFTLTISSLQPDDFATYYCFQGSGYPFTFGGGTKVEIK
Turning to B8, the Fold Difference (Control IC50) was 19 fold; the Fold Difference (Curve IC50) came out at 21 fold; the Mean IC50 (Control), RSV microneutralization was 0.0289 µg/mL; the Mean IC50 (Curve), RSV microneutralization stood at 0.0217 µg/mL.

B9: P12f2 monoclonal antibody (antibody, V domains shown)
VH: QVTLRESGPALVKPTQTLTLTCTFSGFSLSTPGMSVGWIRQPPGKALEWLADIWWDDKKHYNPSLKDRLTISKDTSKNQVVLKVTNMDPADTATYYCARDMIFNFYFDVWGQGTTVTVSS
VL: DIQMTQSPSTLSASVGDRVTITCSLSSRVGYMHWYQQKPGKAPKLLIYDTFYLSSGVPSRFSGSGSGTEFTLTISSLQPDDFATYYCFQGSGYPFTFGGGTKVEIK
As for B9, the Fold Difference (Control IC50) stood at 24 fold; the Fold Difference (Curve IC50) turned out to be 20 fold; the Mean IC50 (Control), RSV microneutralization amounted to 0.0223 µg/mL; the Mean IC50 (Curve), RSV microneutralization came to 0.0231 µg/mL.

B10: A8c7 monoclonal antibody (antibody, V domains shown)
VH: QVTLRESGPALVKPTQTLTLTCTFSGFSLSTAGMSVGWIRQPPGKALEWLADIWWDDKKSYNPSLKDRLTISKDTSKNQVVLKVTNMDPADTATYYCARDMIFNWYFDVWGQGTTVTVSS
VL: DIQMTQSPSTLSASVGDRVTITCSPSSRVGYMHWYQQKPGKAPKLLIYDTRYQSSGVPSRFSGSGSGTEFTLTISSLQPDDFATYYCFQGSGYPFTFGGGTKVEIK
On to B10, for which the Fold Difference (Control IC50) worked out at 14 fold; the Fold Difference (Curve IC50) is 13 fold; the Mean IC50 (Control), RSV microneutralization stood at 0.0383 µg/mL; the Mean IC50 (Curve), RSV microneutralization was found to be 0.0337 µg/mL.

B11: A4B4 monoclonal antibody (antibody, V domains shown)
VH: QVTLRESGPALVKPTQTLTLTCTFSGFSLSTAGMSVGWIRQPPGKALEWLADIWWDDKKHYNPSLKDRLTISKDTSKNQVVLKVTNMDPADTATYYCARDMIFNFYFDVWGQGTTVTVSS
VL: DIQMTQSPSTLSASVGDRVTITCSASSRVGYMHWYQQKPGKAPKLLIYDTFFLDSGVPSRFSGSGSGTEFTLTISSLQPDDFATYYCFQGSGYPFTFGGGTKVEIK
B11 registered a Fold Difference (Control IC50) of 35 fold; a Fold Difference (Curve IC50) of 27 fold; a Mean IC50 (Control), RSV microneutralization of 0.0154 µg/mL; a Mean IC50 (Curve), RSV microneutralization of 0.0171 µg/mL.

B12: A1e9 monoclonal antibody (antibody, V domains shown)
VH: QVTLRESGPALVKPTQTLTLTCTFSGFSLSTAGMSVGWIRQPPGKALEWLADIWWDGKKHYNPSLKDRLTISKDTSKNQVVLKVTNMDPADTATYYCARDMIFNWYFDVWGQGTTVTVSS
VL: DIQMTQSPSTLSASVGDRVTITCSLSSRVGYMHWYQQKPGKAPKLLIYDTFKLSSGVPSRFSGSGSGTEFTLTISSLQPDDFATYYCFQGSGYPFTFGGGTKVEIK
B12 returned a Fold Difference (Control IC50) of 8 fold; a Fold Difference (Curve IC50) of 7 fold; a Mean IC50 (Control), RSV microneutralization of 0.0645 µg/mL; a Mean IC50 (Curve), RSV microneutralization of 0.0625 µg/mL.

B13: A17d4(1) Fab fragment (Fab, V domains shown)
VH: QVTLRESGPALVKPTQTLTLTCTFSGFSLSTAGMSVGWIRQPPGKALEWLADIWWDGKKSYNPSLKDRLTISKDTSKNQVVLKVTNMDPADTATYYCARDMIFNFYFDVWGQGTTVTVSS
VL: DIQMTQSPSTLSASVGDRVTITCLPSSRVGYMHWYQQKPGKAPKLLIYDTMYQSSGVPSRFSGSGSGTEFTLTISSLQPDDFATYYCFQGSGYPFTFGGGTKVEIK
Molecule B13 displayed a Fold Difference (Control IC50) of 31 fold; a Fold Difference (Curve IC50) of 25 fold; a Mean IC50 (Control), RSV microneutralization of 0.0171 µg/mL; a Mean IC50 (Curve), RSV microneutralization of 0.0179 µg/mL.

B14: A12a6 Fab fragment (Fab, V domains shown)
VH: QVTLRESGPALVKPTQTLTLTCTFSGFSLSTAGMSVGWIRQPPGKALEWLADIWWDGKKDYNPSLKDRLTISKDTSKNQVVLKVTNMDPADTATYYCARDMIFNFYFDVWGQGTTVTVSS
VL: DIQMTQSPSTLSASVGDRVTITCSASSRVGYMHWYQQKPGKAPKLLIYDTFKLSSGVPSRFSGSGSGTEFTLTISSLQPDDFATYYCFQGSGYPFTFGGGTKVEIK
For the molecule B14, the Fold Difference (Control IC50) was 17 fold; the Fold Difference (Curve IC50) came out at 16 fold; the Mean IC50 (Control), RSV microneutralization worked out at 0.031 µg/mL; the Mean IC50 (Curve), RSV microneutralization was 0.0287 µg/mL.

B15: A13c4 monoclonal antibody (antibody, V domains shown)
VH: QVTLRESGPALVKPTQTLTLTCTFSGFSLSTAGMSVGWIRQPPGKALEWLADIWWDGKKSYNPSLKDRLTISKDTSKNQVVLKVTNMDPADTATYYCARDMIFNFYFDVWGQGTTVTVSS
VL: DIQMTQSPSTLSASVGDRVTITCSLSSRVGYMHWYQQKPGKAPKLLIYDTMYQSSGVPSRFSGSGSGTEFTLTISSLQPDDFATYYCFQGSGYPFTFGGGTKVEIK
In the case of B15, the Fold Difference (Control IC50) stood at 14 fold; the Fold Difference (Curve IC50) was 12 fold; the Mean IC50 (Control), RSV microneutralization came out at 0.0375 µg/mL; the Mean IC50 (Curve), RSV microneutralization was 0.0376 µg/mL.

B16: A12a6 monoclonal antibody (antibody, V domains shown)
VH: QVTLRESGPALVKPTQTLTLTCTFSGFSLSTAGMSVGWIRQPPGKALEWLADIWWDGKKDYNPSLKDRLTISKDTSKNQVVLKVTNMDPADTATYYCARDMIFNFYFDVWGQGTTVTVSS
VL: DIQMTQSPSTLSASVGDRVTITCSASSRVGYMHWYQQKPGKAPKLLIYDTFKLSSGVPSRFSGSGSGTEFTLTISSLQPDDFATYYCFQGSGYPFTFGGGTKVEIK
The molecule B16 returned a Fold Difference (Control IC50) of 15 fold; a Fold Difference (Curve IC50) of 13 fold; a Mean IC50 (Control), RSV microneutralization of 0.0354 µg/mL; a Mean IC50 (Curve), RSV microneutralization of 0.0357 µg/mL.
